Results from US7994281 (EUROPEAN MOLECULAR BIOLOGY LABORATORY, dated 2011).

Experiments:
[1] = target: T1, DR4 (TRAIL-R1) Fc, recombinant receptor from R&D Systems (UniProt O00220 24-239, limits assumed); experiment: SPR, Biacore 3000, 25 C, receptor amine-coupled to CM5 chip, ligand 2 ug/ml
T1 construct: also called soluble TRAIL-R1 Fc; not shown: Fc part of the bought Fc fusion
Description: (§1) Binding experiments were performed using a surface plasmon resonance-based biosensor Biacore 3000 (Biacore AB, Uppsala, Sweden), at 25° C. Recombinant receptors were ordered from R&D systems (R&D systems, Minneapolis, Minn., USA). Immobilization of the receptors on the sensor surface of a Biacore CM5 sensor chip was performed following a standard amine coupling procedure according to the manufacturer's instructions. A reference surface was generated simultaneously under the same conditions but without receptor injection and used as a blank to correct for instrument and buffer artifacts. […] Binding of ligands to the receptors was monitored in real-time. The receptor/sensor surface was regenerated using 3 M sodium acetate pH 5.2 injections.

[2] = target: T1, DR4 (TRAIL-R1) Fc, recombinant receptor …; experiment: SPR (Biacore): clarified E. coli extract diluted 1:50 injected over immobilised DR4, DR5, DcR1 and RANK; bars are the response as a fraction of the DR5 response
Description: (§2) Control extracts of BL21 (DE3) culture without an over-expression plasmid and of a BL21 (DE3) culture with plasmid over-expressing SH3 domain were also injected.

murine RANK (receptor) = target: T2, murine RANK (receptor) (murine, UniProt O35305 31-214, limits assumed); experiment: SPR (Biacore): clarified E. coli extract diluted 1:50 injected over immobilised DR4, DR5, DcR1 and RANK; bars are the response as a fraction of the DR4 response
T2 construct: Control surface in the SPR screening
T2 sequence (looked up): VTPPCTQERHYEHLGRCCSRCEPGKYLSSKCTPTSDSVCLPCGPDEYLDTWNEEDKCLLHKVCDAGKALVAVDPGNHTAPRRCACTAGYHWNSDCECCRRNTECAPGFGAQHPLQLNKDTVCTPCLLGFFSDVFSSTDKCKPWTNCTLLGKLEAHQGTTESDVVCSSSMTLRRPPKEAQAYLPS
Description: as §2

[3] = target: T3, DR5 (TRAIL-R2) Fc, recombinant receptor from R&D Systems (UniProt O14763 54-182, limits assumed); experiment: SPR, Biacore 3000, 37 C, receptor Fc on CM5 chip, ligand 0.1-250 nM
T3 construct: also called soluble TRAIL-R2 Fc; immobilized TRAIL-R2 Fc; not shown: Fc part of the bought Fc fusion
T3 sequence (O14763 54-182 limits assumed): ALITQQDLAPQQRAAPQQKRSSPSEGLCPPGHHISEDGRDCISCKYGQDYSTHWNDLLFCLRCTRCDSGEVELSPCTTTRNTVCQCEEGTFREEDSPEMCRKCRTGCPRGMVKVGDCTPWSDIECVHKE
Description: (§3) Binding experiments were performed using a surface plasmon resonance-based biosensor Biacore 3000 (Biacore AB, Uppsala, Sweden), at 37° C. Recombinant receptors were ordered from R&D systems (R&D systems, Minneapolis, Minn., USA). […] Receptors were coated at a level of ~600-800 RU. […] Between injections the receptor/sensor surface was regenerated using 30 µl of 3 M sodium acetate pH 5.2.

[4] = target: T1, DR4 (TRAIL-R1) Fc, recombinant receptor …; experiment: as above
Description: as §3

[5] = target: T1, DR4 (TRAIL-R1) Fc, recombinant receptor …; experiment: SPR (Biacore 3000, 37 C): purified ligand at 60 nM over immobilised receptor Fc
[6] = target: T1, DR4 (TRAIL-R1) Fc, recombinant receptor …; experiment: SPR (Biacore 3000, 25 C): ligand at 2 ug/ml injected over receptor amine-coupled to a CM5 chip
Description: as §1

T1 sequence (O00220 24-239 limits assumed): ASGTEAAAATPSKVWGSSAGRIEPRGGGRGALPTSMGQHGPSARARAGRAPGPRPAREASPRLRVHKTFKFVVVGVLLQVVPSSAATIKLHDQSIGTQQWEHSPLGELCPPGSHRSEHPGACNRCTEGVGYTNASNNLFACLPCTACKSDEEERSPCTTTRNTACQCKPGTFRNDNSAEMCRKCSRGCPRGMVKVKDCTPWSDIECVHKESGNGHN

B1: TRAIL mutant C1 (M1 + M3: E194I, I196S, S225A) (ligand)
chain: VRERGPQRVAAHITGTRGRSNTLSSPNSKNEKALGRKINSWESSRSGHSFLSNLHLRNGELVIHEKGFYYIYSQTYFRFQIESKENTKNDKQMVQYIYKYTSYPDPILLMKAARNSCWSKDAEYGLYSIYQGGIFELKENDRIFVSVTNEHLIDMDHEASFFGAFLVG
notes: Combination of M1 and M3 on soluble TRAIL 114-281
- binding result [1]: binds

B2: TRAIL mutant D218F (ligand)
chain: VRERGPQRVAAHITGTRGRSNTLSSPNSKNEKALGRKINSWESSRSGHSFLSNLHLRNGELVIHEKGFYYIYSQTYFRFQEEIKENTKNDKQMVQYIYKYTSYPFPILLMKSARNSCWSKDAEYGLYSIYQGGIFELKENDRIFVSVTNEHLIDMDHEASFFGAFLVG
- binding result [2]: binds

B3: TRAIL mutant D218R (ligand)
chain: VRERGPQRVAAHITGTRGRSNTLSSPNSKNEKALGRKINSWESSRSGHSFLSNLHLRNGELVIHEKGFYYIYSQTYFRFQEEIKENTKNDKQMVQYIYKYTSYPRPILLMKSARNSCWSKDAEYGLYSIYQGGIFELKENDRIFVSVTNEHLIDMDHEASFFGAFLVG
- binding result (murine RANK (receptor)): no binding
- binding result [2]: binds

B4: TRAIL mutant D218Y (ligand)
chain: VRERGPQRVAAHITGTRGRSNTLSSPNSKNEKALGRKINSWESSRSGHSFLSNLHLRNGELVIHEKGFYYIYSQTYFRFQEEIKENTKNDKQMVQYIYKYTSYPYPILLMKSARNSCWSKDAEYGLYSIYQGGIFELKENDRIFVSVTNEHLIDMDHEASFFGAFLVG
- binding result (murine RANK (receptor)): no binding
- binding result [2]: binds

B5: TRAIL mutant D269HE195R (ligand)
chain: VRERGPQRVAAHITGTRGRSNTLSSPNSKNEKALGRKINSWESSRSGHSFLSNLHLRNGELVIHEKGFYYIYSQTYFRFQERIKENTKNDKQMVQYIYKYTSYPDPILLMKSARNSCWSKDAEYGLYSIYQGGIFELKENDRIFVSVTNEHLIDMHHEASFFGAFLVG
- fold improvement in binding relative to wild-type TRAIL [3]: > 10 fold
- fold reduction in binding relative to wild-type TRAIL [4]: > 15 fold

B6: TRAIL mutant D269HT214R (ligand)
chain: VRERGPQRVAAHITGTRGRSNTLSSPNSKNEKALGRKINSWESSRSGHSFLSNLHLRNGELVIHEKGFYYIYSQTYFRFQEEIKENTKNDKQMVQYIYKYRSYPDPILLMKSARNSCWSKDAEYGLYSIYQGGIFELKENDRIFVSVTNEHLIDMHHEASFFGAFLVG
notes: also called T214R-D269H
- binding result [5]: no binding (tested: 60 nM)

B7: TRAIL mutant D269K (ligand)
chain: VRERGPQRVAAHITGTRGRSNTLSSPNSKNEKALGRKINSWESSRSGHSFLSNLHLRNGELVIHEKGFYYIYSQTYFRFQEEIKENTKNDKQMVQYIYKYTSYPDPILLMKSARNSCWSKDAEYGLYSIYQGGIFELKENDRIFVSVTNEHLIDMKHEASFFGAFLVG
- fold improvement in binding relative to wild-type TRAIL [3]: > 10 fold
- fold reduction in binding relative to wild-type TRAIL [4]: > 15 fold

B8: TRAIL mutant D269R (ligand)
chain: VRERGPQRVAAHITGTRGRSNTLSSPNSKNEKALGRKINSWESSRSGHSFLSNLHLRNGELVIHEKGFYYIYSQTYFRFQEEIKENTKNDKQMVQYIYKYTSYPDPILLMKSARNSCWSKDAEYGLYSIYQGGIFELKENDRIFVSVTNEHLIDMRHEASFFGAFLVG
- fold improvement in binding relative to wild-type TRAIL [3]: > 10 fold
- fold reduction in binding relative to wild-type TRAIL [4]: > 15 fold

B9: TRAIL mutant E155M (ligand)
chain: VRERGPQRVAAHITGTRGRSNTLSSPNSKNEKALGRKINSWMSSRSGHSFLSNLHLRNGELVIHEKGFYYIYSQTYFRFQEEIKENTKNDKQMVQYIYKYTSYPDPILLMKSARNSCWSKDAEYGLYSIYQGGIFELKENDRIFVSVTNEHLIDMDHEASFFGAFLVG
- binding result [2]: binds

B10: TRAIL mutant G131R (ligand)
chain: VRERGPQRVAAHITGTRRRSNTLSSPNSKNEKALGRKINSWESSRSGHSFLSNLHLRNGELVIHEKGFYYIYSQTYFRFQEEIKENTKNDKQMVQYIYKYTSYPDPILLMKSARNSCWSKDAEYGLYSIYQGGIFELKENDRIFVSVTNEHLIDMDHEASFFGAFLVG
- binding result (murine RANK (receptor)): no binding
- binding result [2]: binds

B11: TRAIL mutant G160K (ligand)
chain: VRERGPQRVAAHITGTRGRSNTLSSPNSKNEKALGRKINSWESSRSKHSFLSNLHLRNGELVIHEKGFYYIYSQTYFRFQEEIKENTKNDKQMVQYIYKYTSYPDPILLMKSARNSCWSKDAEYGLYSIYQGGIFELKENDRIFVSVTNEHLIDMDHEASFFGAFLVG
- binding result (murine RANK (receptor)): no binding
- binding result [2]: binds

B12: TRAIL mutant I220H (ligand)
chain: VRERGPQRVAAHITGTRGRSNTLSSPNSKNEKALGRKINSWESSRSGHSFLSNLHLRNGELVIHEKGFYYIYSQTYFRFQEEIKENTKNDKQMVQYIYKYTSYPDPHLLMKSARNSCWSKDAEYGLYSIYQGGIFELKENDRIFVSVTNEHLIDMDHEASFFGAFLVG
- binding result [2]: binds

B13: TRAIL mutant I220M (ligand)
chain: VRERGPQRVAAHITGTRGRSNTLSSPNSKNEKALGRKINSWESSRSGHSFLSNLHLRNGELVIHEKGFYYIYSQTYFRFQEEIKENTKNDKQMVQYIYKYTSYPDPMLLMKSARNSCWSKDAEYGLYSIYQGGIFELKENDRIFVSVTNEHLIDMDHEASFFGAFLVG
- binding result [2]: binds

B14: TRAIL mutant M1 (E194I, I196S) (ligand)
chain: VRERGPQRVAAHITGTRGRSNTLSSPNSKNEKALGRKINSWESSRSGHSFLSNLHLRNGELVIHEKGFYYIYSQTYFRFQIESKENTKNDKQMVQYIYKYTSYPDPILLMKSARNSCWSKDAEYGLYSIYQGGIFELKENDRIFVSVTNEHLIDMDHEASFFGAFLVG
notes: Stability mutant built on soluble TRAIL 114-281
- binding result [6]: binds

B15: TRAIL mutant M2 (D203I, Q205M, Y237F) (ligand)
chain: VRERGPQRVAAHITGTRGRSNTLSSPNSKNEKALGRKINSWESSRSGHSFLSNLHLRNGELVIHEKGFYYIYSQTYFRFQEEIKENTKNIKMMVQYIYKYTSYPDPILLMKSARNSCWSKDAEFGLYSIYQGGIFELKENDRIFVSVTNEHLIDMDHEASFFGAFLVG
notes: as for B14
- binding result [6]: binds

B16: TRAIL mutant R130E (ligand)
chain: VRERGPQRVAAHITGTEGRSNTLSSPNSKNEKALGRKINSWESSRSGHSFLSNLHLRNGELVIHEKGFYYIYSQTYFRFQEEIKENTKNDKQMVQYIYKYTSYPDPILLMKSARNSCWSKDAEYGLYSIYQGGIFELKENDRIFVSVTNEHLIDMDHEASFFGAFLVG
- binding result (murine RANK (receptor)): no binding
- binding result [2]: binds

B17: TRAIL mutant R149D (ligand)
chain: VRERGPQRVAAHITGTRGRSNTLSSPNSKNEKALGDKINSWESSRSGHSFLSNLHLRNGELVIHEKGFYYIYSQTYFRFQEEIKENTKNDKQMVQYIYKYTSYPDPILLMKSARNSCWSKDAEYGLYSIYQGGIFELKENDRIFVSVTNEHLIDMDHEASFFGAFLVG
- binding result [2]: binds

B18: TRAIL mutant R149H (ligand)
chain: VRERGPQRVAAHITGTRGRSNTLSSPNSKNEKALGHKINSWESSRSGHSFLSNLHLRNGELVIHEKGFYYIYSQTYFRFQEEIKENTKNDKQMVQYIYKYTSYPDPILLMKSARNSCWSKDAEYGLYSIYQGGIFELKENDRIFVSVTNEHLIDMDHEASFFGAFLVG
- binding result [2]: binds

B19: TRAIL mutant R191ED267R (ligand)
chain: VRERGPQRVAAHITGTRGRSNTLSSPNSKNEKALGRKINSWESSRSGHSFLSNLHLRNGELVIHEKGFYYIYSQTYFEFQEEIKENTKNDKQMVQYIYKYTSYPDPILLMKSARNSCWSKDAEYGLYSIYQGGIFELKENDRIFVSVTNEHLIRMDHEASFFGAFLVG
- binding result [5]: no binding (tested: 60 nM)
